Reference: article PMC10658506 (2023)
Changes are numbered by the printed parent chain. Values belong to the binder of their own block, whether it stands above or below them.

Target: T1, soluble human IL-11 receptor extracellular domain, his-tagged (human, UniProt Q14626 24-370)
T1 chain: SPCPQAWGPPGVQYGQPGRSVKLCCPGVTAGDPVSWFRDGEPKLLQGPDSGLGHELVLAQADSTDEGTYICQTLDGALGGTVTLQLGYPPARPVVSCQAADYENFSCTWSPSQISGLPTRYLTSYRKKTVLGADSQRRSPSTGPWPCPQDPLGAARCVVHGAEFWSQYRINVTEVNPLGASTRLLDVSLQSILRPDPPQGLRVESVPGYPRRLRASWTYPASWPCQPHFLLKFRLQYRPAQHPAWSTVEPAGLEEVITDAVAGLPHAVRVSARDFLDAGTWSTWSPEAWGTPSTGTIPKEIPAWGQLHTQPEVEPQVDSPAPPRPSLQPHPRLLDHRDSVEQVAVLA
Assay: FACS

Kd: 0.22 nM
B1: yeast-displayed IL-11 IPR (ligand)
chain: PGPPPGPPRVSPDPRAELDSIVLLTRSLLADTRQLAAQLRDKFPADGDHNLDSLPTPAMSARALGALQLPGVLTRLRADLLSYLRHVQWLRRAGGSSLKTLEPELGTLQARLDRLLRRLQLLMSRLALPQPPPDPPAPPLAPPSSAWGGIRAAHAILGGLHLTLDWAVRGLLLLKTRL

Kd: 8.2 nM
B2: yeast-displayed wild-type human IL-11 (ligand)
chain: B1 chain with I21T, P57L, R62G

Kd: 0.29 nM
B3: yeast-displayed IL-11 GIPRDM (ligand)
chain: B1 chain with D19G, G71D, V72M

Kd: 0.19 nM
B4: yeast-displayed IL-11 GIPRD (ligand)
chain: B1 chain with D19G, G71D
